Laboratory results as given in the Immune Epitope Database (IEDB).
pKd: −log10 of the molar value. One block for each sequence: values may come before it.

Key:
HLA-B*44:03 = assay: IEDB peptide-MHC binding, purified MHC/competitive/radioactivity; filed as Kd, often an IC50 or EC50 that approximates it; ≥ and ≤ were set here for values at or beyond the usual limits of such assays
HLA-B*40:01 = assay: as above
HLA-B*45:01 = assay: as above
HLA-B*44:02 = assay: as above
HLA-B*40:02 = assay: as above
HLA-B*18:01 = assay: as above
HLA-B*15:01 = assay: IEDB peptide-MHC binding, purified MHC/competitive/fluorescence; filed as Kd, often an IC50 or EC50 that approximates it; ≥ and ≤ were set here for values at or beyond the usual limits of such assays; settings: source organism: Escherichia coli str. K-12 substr. MG1655
HLA-A*26:01 [1] = assay: as above; settings: source organism: Escherichia coli str. K-12 substr. MG1655
HLA-A*68:02 = assay: IEDB peptide-MHC binding, purified MHC/competitive/radioactivity; filed as Kd, often an IC50 or EC50 that approximates it; ≥ and ≤ were set here for values at or beyond the usual limits of such assays
HLA-A*26:01 [2] = assay: as above
HLA-A*01:01 = assay: as above; settings: source organism: Dengue virus 3 Martinique/1243/1999
HLA-B*51:01 [3] = assay: IEDB peptide-MHC binding, purified MHC/competitive/fluorescence; filed as Kd, often an IC50 or EC50 that approximates it; ≥ and ≤ were set here for values at or beyond the usual limits of such assays; settings: source organism: Listeria monocytogenes serotype 4b str. CLIP 80459
HLA-A*02:03 = assay: IEDB peptide-MHC binding, purified MHC/competitive/radioactivity; filed as Kd, often an IC50 or EC50 that approximates it; ≥ and ≤ were set here for values at or beyond the usual limits of such assays; settings: source organism: Trypanosoma cruzi
HLA-A*02:06 = assay: as above
HLA-A*02:02 = assay: as above; settings: source organism: Trypanosoma cruzi
HLA-B*51:01 [4] = assay: as above; settings: source organism: Dengue virus 3 Martinique/1243/1999
[5] = source organism: SARS coronavirus Tor2
[6] = source organism: Lymphocytic choriomeningitis virus (strain Armstrong)
[7] = source organism: Mammarenavirus choriomeningitidis
[8] = source organism: Mammarenavirus machupoense
[9] = source organism: Mammarenavirus juninense
[10] = source organism: Mammarenavirus brazilense
[11] = source organism: Mammarenavirus lassaense
[12] = source organism: Dengue virus 2 Jamaica/1409/1983
[13] = source organism: Dengue virus 3 Martinique/1243/1999
[14] = source organism: Trypanosoma cruzi
[15] = source organism: Dengue virus 1 Brazil/97-11/1997

Sequence: ADVFHLYLQY
pKd (HLA-B*44:03; [5]): 6.83
pKd (HLA-B*40:01; [5]): 4.78
pKd (HLA-B*45:01; [5]): 4.94
pKd (HLA-B*44:02; [5]): 5.62
pKd (HLA-B*40:02; [5]): ≤ 4.40
pKd (HLA-B*18:01; [5]): ≤ 4.68

Sequence: AEILPDTTY
pKd (HLA-B*44:03; [6]): 7.00
pKd (HLA-B*40:01; [6]): 5.22
pKd (HLA-B*45:01; [6]): 5.91
pKd (HLA-B*44:02; [6]): 7.01
pKd (HLA-B*40:02; [6]): 4.85
pKd (HLA-B*18:01; [6]): 5.85

Sequence: AEIVDTVSA
pKd (HLA-B*44:03; [5]): 5.79
pKd (HLA-B*40:01; [5]): 6.40
pKd (HLA-B*45:01; [5]): 8.07
pKd (HLA-B*44:02; [5]): 5.71
pKd (HLA-B*40:02; [5]): 7.13
pKd (HLA-B*18:01; [5]): 5.09

Sequence: AELLPDTTYL
pKd (HLA-B*44:03; [7]): 5.92
pKd (HLA-B*40:01; [7]): 5.01
pKd (HLA-B*45:01; [7]): 4.76
pKd (HLA-B*44:02; [7]): 6.25
pKd (HLA-B*40:02; [7]): 6.78
pKd (HLA-B*18:01; [7]): ≤ 4.15

Sequence: AENVIVGLV
pKd (HLA-B*44:03; [8]): 6.47
pKd (HLA-B*40:01; [8]): 5.53
pKd (HLA-B*45:01; [8]): 8.47
pKd (HLA-B*44:02; [8]): 6.85
pKd (HLA-B*40:02; [8]): 7.52
pKd (HLA-B*18:01; [8]): ≤ 4.11

Sequence: AETGSQGVY
pKd (HLA-B*44:03; [9]): 6.64
pKd (HLA-B*40:01; [9]): 4.80
pKd (HLA-B*45:01; [9]): 6.68
pKd (HLA-B*44:02; [9]): 6.57
pKd (HLA-B*40:02; [9]): 6.20
pKd (HLA-B*18:01; [9]): 5.18

Sequence: AEVEWKFYDA
pKd (HLA-B*44:03; [5]): 7.04
pKd (HLA-B*40:01; [5]): 5.07
pKd (HLA-B*45:01; [5]): 8.26
pKd (HLA-B*44:02; [5]): 7.10
pKd (HLA-B*40:02; [5]): 5.33
pKd (HLA-B*18:01; [5]): 5.81

pKd (HLA-B*15:01): 6.15
pKd (HLA-A*26:01 [1]): ≤ 4.70
Sequence: ALKANNKVY

pKd (HLA-B*15:01): 6.30
Sequence: ANNKVYEAY

Sequence: CEKALKYLPI
pKd (HLA-B*44:03; [5]): 5.94
pKd (HLA-B*40:01; [5]): 5.16
pKd (HLA-B*45:01; [5]): 6.98
pKd (HLA-B*44:02; [5]): 6.90
pKd (HLA-B*40:02; [5]): 7.52
pKd (HLA-B*18:01; [5]): ≤ 4.54

Sequence: CEMNHVNSM
pKd (HLA-B*44:03; [10]): 6.02
pKd (HLA-B*40:01; [10]): 5.53
pKd (HLA-B*45:01; [10]): 6.67
pKd (HLA-B*44:02; [10]): 6.75
pKd (HLA-B*40:02; [10]): 7.17
pKd (HLA-B*18:01; [10]): 6.33

Sequence: DEADLDEILL
pKd (HLA-B*44:03; [11]): ≤ 4.57
pKd (HLA-B*40:01; [11]): 4.74
pKd (HLA-B*45:01; [11]): ≤ 4.35
pKd (HLA-B*44:02; [11]): ≤ 4.34
pKd (HLA-B*40:02; [11]): 5.23
pKd (HLA-B*18:01; [11]): 5.77

pKd (HLA-A*68:02; source organism: Homo sapiens): 5.43
Sequence: DLTDYLMKI

Sequence: EAAGIFMTA
pKd (HLA-A*68:02; [12]): 9.43

Sequence: EIAETQHGTI
pKd (HLA-A*68:02; [12]): 7.00

Sequence: ESPSKLASAI
pKd (HLA-A*68:02; [12]): 7.13
pKd (HLA-A*26:01 [2]; [12]): ≤ 4.18

Sequence: ETMETLLLL
pKd (HLA-A*01:01): 4.94
pKd (HLA-A*68:02; [13]): 7.76
pKd (HLA-A*26:01 [2]; [13]): 7.02

Sequence: EVSETQHGTI
pKd (HLA-A*68:02; [13]): 6.71

Sequence: FAIPIAEQI
pKd (HLA-B*51:01 [3]): ≤ 4.70

Sequence: FANYKFTLV
pKd (HLA-A*68:02; [14]): 7.75
pKd (HLA-A*02:03): 9.22
pKd (HLA-A*02:06; [14]): 9.33
pKd (HLA-A*02:02): 7.13

Sequence: FANYNFTLL
pKd (HLA-A*68:02; [14]): 9.82
pKd (HLA-A*02:03): 8.47
pKd (HLA-A*02:06; [14]): 9.91
pKd (HLA-A*02:02): 10.08

Sequence: FDAAVMGGF
pKd (HLA-B*44:03; [11]): 4.74
pKd (HLA-B*40:01; [11]): ≤ 4.49
pKd (HLA-B*45:01; [11]): ≤ 4.11
pKd (HLA-B*44:02; [11]): ≤ 4.56
pKd (HLA-B*40:02; [11]): 5.28
pKd (HLA-B*18:01; [11]): ≤ 4.40

Sequence: FEHIVYGDF
pKd (HLA-B*44:03; [5]): 4.88
pKd (HLA-B*40:01; [5]): 5.15
pKd (HLA-B*45:01; [5]): ≤ 4.65
pKd (HLA-B*44:02; [5]): 5.73
pKd (HLA-B*40:02; [5]): 6.11
pKd (HLA-B*18:01; [5]): 5.90

Sequence: FEIDKGIYQT
pKd (HLA-B*44:03; [5]): 4.93
pKd (HLA-B*40:01; [5]): 6.13
pKd (HLA-B*45:01; [5]): 5.51
pKd (HLA-B*44:02; [5]): ≤ 4.25
pKd (HLA-B*40:02; [5]): 7.33
pKd (HLA-B*18:01; [5]): 5.19

Sequence: FSRENSYSGV
pKd (HLA-B*51:01 [4]): ≤ 4.35

Sequence: FTVIALFLA
pKd (HLA-A*68:02; [15]): 6.87
pKd (HLA-A*02:06; [15]): 8.50

Sequence: GDEALTGFL
pKd (HLA-B*44:03; [8]): ≤ 4.11
pKd (HLA-B*40:01; [8]): 6.04
pKd (HLA-B*45:01; [8]): ≤ 4.65
pKd (HLA-B*44:02; [8]): 4.86
pKd (HLA-B*40:02; [8]): 5.52
pKd (HLA-B*18:01; [8]): 5.24
